Source: patent US20070232789A1 (UNIVERSITY OF MARYLAND BALTIMORE, published 2007)

Key:
[1] = target: T1, A1/A3-C1-C2 heterodimer of factor VIII, plasma-derived (human, UniProt P00451 20-391; P00451 1709-2351); assay: cell-based or functional assay
T1 sequence 1: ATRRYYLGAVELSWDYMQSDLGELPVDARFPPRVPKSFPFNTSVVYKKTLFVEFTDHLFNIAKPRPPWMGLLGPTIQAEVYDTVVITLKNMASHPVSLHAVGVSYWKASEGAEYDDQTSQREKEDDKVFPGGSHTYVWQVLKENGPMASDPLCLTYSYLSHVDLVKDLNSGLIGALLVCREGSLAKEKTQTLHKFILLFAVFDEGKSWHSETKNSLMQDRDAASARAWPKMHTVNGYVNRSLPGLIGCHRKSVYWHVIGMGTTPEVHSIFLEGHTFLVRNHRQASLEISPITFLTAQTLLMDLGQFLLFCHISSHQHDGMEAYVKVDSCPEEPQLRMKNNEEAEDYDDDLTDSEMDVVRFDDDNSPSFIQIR
T1 sequence 2: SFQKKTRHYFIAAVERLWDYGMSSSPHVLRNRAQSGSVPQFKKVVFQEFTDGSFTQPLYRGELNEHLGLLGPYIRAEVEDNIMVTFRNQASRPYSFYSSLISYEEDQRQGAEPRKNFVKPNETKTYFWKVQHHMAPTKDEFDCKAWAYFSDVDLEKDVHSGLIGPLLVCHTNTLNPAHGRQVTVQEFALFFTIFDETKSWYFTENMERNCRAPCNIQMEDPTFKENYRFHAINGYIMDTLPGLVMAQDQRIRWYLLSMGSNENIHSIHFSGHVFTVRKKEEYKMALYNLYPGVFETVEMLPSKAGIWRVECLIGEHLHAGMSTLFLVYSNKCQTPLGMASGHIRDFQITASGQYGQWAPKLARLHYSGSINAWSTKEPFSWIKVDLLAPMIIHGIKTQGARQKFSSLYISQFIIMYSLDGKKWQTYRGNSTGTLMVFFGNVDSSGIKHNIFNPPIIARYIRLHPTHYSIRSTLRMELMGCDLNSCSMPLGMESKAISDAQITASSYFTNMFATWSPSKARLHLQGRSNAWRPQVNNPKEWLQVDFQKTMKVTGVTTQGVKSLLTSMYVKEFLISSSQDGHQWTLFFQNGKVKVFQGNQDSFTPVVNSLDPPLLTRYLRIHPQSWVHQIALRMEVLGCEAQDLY

[2] = target: T2, low-density lipoprotein receptor-related protein (LRP), purified (human, UniProt Q07954 20-4544); assay: SPR, BIAcore 3000, one-site model, KD = koff/kon
T2 construct: mature; also called low density lipoprotein receptor-related protein/α2-macroglobulin receptor; LRP receptor
Excerpt: Surface plasmon resonance-based binding assay. […] This system allows real-time biomolecular interaction analysis (BIA) using surface plasmon resonance (SPR) technology. One molecule (the ligand) is usually immobilized on the surface of the sensor chip; the second molecule (the analyte) in solution is passed over the chip under conditions of continuous flow, and the amount of the bound analyte is detected by the system. SPR is a non-invasive optical measuring technique which measures the mass concentration of biomolecules in close proximity to the sensor chip where association and dissociation of biomolecular complexes occurs. […] The association (kₒₙ) and dissociation (koff) rate constants were determined using BIAevaluation Version 3.1 software. The data were corrected for bulk refraction index changes and fitted to a one-site binding model by a non-linear regression analysis Equilibrium dissociation constants (KD) were calculated from the ratio koff/kₒₙ.

T2 sequence (Q07954 20-4544, form in doubt): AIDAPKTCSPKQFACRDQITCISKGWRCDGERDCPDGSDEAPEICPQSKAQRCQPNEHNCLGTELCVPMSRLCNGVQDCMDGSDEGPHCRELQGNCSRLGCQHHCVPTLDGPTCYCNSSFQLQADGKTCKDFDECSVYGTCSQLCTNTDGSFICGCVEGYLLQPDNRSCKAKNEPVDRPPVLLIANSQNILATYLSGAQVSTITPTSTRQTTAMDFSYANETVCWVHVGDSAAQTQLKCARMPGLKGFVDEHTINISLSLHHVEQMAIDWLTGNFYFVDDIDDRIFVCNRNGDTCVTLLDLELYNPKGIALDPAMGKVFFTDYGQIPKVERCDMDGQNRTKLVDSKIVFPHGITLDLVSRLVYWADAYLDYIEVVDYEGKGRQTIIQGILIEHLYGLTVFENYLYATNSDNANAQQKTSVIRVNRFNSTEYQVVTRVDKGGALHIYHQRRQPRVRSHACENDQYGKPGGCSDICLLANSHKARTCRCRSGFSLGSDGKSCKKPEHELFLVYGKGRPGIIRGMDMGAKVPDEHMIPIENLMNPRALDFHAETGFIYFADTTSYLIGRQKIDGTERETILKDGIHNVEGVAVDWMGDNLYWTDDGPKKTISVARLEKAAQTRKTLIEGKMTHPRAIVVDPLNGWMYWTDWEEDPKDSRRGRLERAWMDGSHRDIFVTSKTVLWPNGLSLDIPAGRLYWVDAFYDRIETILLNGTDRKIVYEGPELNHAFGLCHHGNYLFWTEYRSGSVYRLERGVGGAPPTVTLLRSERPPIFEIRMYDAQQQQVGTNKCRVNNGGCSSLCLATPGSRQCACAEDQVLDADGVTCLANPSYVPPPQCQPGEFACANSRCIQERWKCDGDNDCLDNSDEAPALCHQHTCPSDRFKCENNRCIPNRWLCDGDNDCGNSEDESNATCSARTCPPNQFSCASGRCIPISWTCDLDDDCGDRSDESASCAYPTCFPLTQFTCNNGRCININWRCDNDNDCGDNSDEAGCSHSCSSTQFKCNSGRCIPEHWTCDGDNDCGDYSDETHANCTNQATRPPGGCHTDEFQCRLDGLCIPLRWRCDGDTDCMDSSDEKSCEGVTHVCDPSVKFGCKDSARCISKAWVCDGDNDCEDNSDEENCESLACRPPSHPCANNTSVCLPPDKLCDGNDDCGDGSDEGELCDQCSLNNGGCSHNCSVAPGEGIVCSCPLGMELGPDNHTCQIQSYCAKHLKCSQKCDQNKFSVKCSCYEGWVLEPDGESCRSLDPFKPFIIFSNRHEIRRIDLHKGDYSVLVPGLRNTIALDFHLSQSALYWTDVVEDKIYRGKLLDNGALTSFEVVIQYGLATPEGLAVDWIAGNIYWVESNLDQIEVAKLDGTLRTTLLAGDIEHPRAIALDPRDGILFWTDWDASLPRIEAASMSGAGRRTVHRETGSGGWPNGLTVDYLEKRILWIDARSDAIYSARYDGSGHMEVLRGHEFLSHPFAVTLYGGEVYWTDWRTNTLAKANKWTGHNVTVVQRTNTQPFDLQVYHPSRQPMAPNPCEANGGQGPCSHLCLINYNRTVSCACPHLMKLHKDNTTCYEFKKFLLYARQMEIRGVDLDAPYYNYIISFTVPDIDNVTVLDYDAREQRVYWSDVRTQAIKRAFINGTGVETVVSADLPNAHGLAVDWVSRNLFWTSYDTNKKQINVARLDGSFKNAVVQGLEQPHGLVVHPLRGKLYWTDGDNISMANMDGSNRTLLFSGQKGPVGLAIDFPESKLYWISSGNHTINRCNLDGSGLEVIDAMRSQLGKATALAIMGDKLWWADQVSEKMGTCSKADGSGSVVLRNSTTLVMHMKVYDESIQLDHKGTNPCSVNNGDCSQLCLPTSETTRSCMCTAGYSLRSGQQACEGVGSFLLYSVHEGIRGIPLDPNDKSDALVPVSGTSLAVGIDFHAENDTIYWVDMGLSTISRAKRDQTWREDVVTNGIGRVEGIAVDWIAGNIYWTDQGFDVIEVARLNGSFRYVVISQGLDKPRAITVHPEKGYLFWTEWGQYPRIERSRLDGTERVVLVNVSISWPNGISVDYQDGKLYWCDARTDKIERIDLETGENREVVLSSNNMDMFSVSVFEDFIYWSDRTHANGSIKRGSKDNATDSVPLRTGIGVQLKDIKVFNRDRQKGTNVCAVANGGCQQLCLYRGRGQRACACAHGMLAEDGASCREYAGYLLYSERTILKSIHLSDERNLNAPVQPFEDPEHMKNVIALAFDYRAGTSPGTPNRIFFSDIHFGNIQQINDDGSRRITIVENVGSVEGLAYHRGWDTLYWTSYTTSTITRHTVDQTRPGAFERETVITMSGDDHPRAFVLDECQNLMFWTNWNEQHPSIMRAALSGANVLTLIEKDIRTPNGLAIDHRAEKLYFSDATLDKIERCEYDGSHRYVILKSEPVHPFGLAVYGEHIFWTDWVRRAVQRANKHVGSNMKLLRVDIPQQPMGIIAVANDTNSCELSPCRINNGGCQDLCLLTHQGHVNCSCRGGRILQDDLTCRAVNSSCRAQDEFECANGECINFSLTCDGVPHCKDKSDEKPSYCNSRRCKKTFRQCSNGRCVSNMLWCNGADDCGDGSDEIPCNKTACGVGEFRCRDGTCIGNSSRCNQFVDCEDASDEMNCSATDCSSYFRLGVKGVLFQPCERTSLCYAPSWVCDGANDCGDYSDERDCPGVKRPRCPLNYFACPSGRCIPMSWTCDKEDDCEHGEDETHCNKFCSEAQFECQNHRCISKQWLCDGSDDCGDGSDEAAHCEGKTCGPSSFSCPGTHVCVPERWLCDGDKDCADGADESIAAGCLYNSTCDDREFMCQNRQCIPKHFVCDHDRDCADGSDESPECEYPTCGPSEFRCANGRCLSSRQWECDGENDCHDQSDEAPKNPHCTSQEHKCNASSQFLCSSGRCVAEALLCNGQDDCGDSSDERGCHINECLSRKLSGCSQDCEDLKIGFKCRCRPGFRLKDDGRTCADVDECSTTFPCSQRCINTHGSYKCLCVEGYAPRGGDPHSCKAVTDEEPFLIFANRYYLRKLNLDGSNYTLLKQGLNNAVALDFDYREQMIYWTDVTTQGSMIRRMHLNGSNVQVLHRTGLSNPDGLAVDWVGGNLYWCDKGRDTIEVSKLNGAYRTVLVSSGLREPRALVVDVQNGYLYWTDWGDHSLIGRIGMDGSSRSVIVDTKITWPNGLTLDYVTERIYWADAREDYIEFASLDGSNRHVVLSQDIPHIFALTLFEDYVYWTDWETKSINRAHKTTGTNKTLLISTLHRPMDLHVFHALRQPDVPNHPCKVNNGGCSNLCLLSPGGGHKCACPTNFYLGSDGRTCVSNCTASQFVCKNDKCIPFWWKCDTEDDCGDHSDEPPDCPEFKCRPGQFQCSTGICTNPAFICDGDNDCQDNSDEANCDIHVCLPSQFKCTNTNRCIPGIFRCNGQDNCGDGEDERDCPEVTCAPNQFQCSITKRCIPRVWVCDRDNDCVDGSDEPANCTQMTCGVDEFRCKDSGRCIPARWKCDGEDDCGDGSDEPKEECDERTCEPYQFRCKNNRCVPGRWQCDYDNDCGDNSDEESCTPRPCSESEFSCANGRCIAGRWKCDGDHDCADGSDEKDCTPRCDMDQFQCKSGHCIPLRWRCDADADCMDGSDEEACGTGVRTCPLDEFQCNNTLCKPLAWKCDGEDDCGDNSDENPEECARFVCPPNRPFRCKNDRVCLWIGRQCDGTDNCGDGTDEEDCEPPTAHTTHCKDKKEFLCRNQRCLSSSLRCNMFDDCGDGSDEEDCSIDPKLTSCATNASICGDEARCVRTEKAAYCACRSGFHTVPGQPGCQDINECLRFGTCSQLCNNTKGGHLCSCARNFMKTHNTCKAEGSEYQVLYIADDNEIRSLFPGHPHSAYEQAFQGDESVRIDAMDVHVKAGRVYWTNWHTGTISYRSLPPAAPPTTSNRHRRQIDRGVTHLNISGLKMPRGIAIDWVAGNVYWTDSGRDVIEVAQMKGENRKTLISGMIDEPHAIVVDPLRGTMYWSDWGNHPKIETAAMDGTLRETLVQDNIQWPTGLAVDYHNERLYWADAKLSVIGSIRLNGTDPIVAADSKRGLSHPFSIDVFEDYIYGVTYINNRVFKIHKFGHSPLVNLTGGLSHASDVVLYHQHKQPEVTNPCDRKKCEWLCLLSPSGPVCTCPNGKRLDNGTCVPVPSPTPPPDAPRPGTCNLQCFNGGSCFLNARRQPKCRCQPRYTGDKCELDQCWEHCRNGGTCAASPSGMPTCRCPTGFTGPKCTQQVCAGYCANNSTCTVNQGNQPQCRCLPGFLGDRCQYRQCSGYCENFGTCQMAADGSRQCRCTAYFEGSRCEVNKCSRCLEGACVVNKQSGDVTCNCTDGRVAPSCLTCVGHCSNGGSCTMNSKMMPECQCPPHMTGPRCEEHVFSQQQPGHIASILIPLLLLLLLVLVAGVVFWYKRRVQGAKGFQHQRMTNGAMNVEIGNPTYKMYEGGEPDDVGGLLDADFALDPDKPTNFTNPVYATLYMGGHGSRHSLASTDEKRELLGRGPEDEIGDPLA

B1: recombinant wild-type A2 domain of human factor VIII (hx-A2) (other)
chain: SGAKKHPKTWVHYIAAEEEDWDYAPLVLAPDDRSYKSQYLNNGPQRIGRKYKKVRFMAYTDETFKTREAIQHESGILGPLLYGEVGDTLLIIFKNQASRPYNIYPHGITDVRPLYSRRLPKGVKHLKDFPILPGEIFKYKWTVTVEDGPTKSDPRCLTRYYSSFVNMERDLASGLIGPLLICYKESVDQRGNQIMSDKRNVILFSVFDENRSWYLTENIQRFLPNPAGVQLEDPEFQASNIMHSINGYVFDSLQLSVCLHEVAYWYILSIGAQTDFLSVFFSGYTFKHKMVYEDTLTLFPFSGETVFMSMENPGLWILGCHNSDFRNRGMTALLKVSSCDKNTGDYYEDSYEDISAYLLSKNNAIEPR
notes: Secreted from Sf9 cells as hx-A2 and purified on mAb 8860; Removal of the tag is not reported; also called wt-A2; recombinant A2; not shown: N-terminal hx leader (6xHis tag, vector-derived linker, factor Xa site)
[1]
  Activity of reconstituted FVIIIa (% of wt activity): 100 % of wt activity
[2]
  Kd: 21 nM

B2: recombinant A2 mutant #11 (Arg-490 to Ala) (other)
chain: SGAKKHPKTWVHYIAAEEEDWDYAPLVLAPDDRSYKSQYLNNGPQRIGRKYKKVRFMAYTDETFKTREAIQHESGILGPLLYGEVGDTLLIIFKNQASRPYNIYPHGITDVRPLYSRALPKGVKHLKDFPILPGEIFKYKWTVTVEDGPTKSDPRCLTRYYSSFVNMERDLASGLIGPLLICYKESVDQRGNQIMSDKRNVILFSVFDENRSWYLTENIQRFLPNPAGVQLEDPEFQASNIMHSINGYVFDSLQLSVCLHEVAYWYILSIGAQTDFLSVFFSGYTFKHKMVYEDTLTLFPFSGETVFMSMENPGLWILGCHNSDFRNRGMTALLKVSSCDKNTGDYYEDSYEDISAYLLSKNNAIEPR
notes: hx-A2 form from Sf9 cells
[1]
  Activity of reconstituted FVIIIa (% of wt activity): 151 % of wt activity
[2]
  Kd: 59 nM

B3: recombinant A2 mutant #16 (His-499 to Ala as printed in Tables 1 and 2; Lys^499 in the text) (other)
chain: SGAKKHPKTWVHYIAAEEEDWDYAPLVLAPDDRSYKSQYLNNGPQRIGRKYKKVRFMAYTDETFKTREAIQHESGILGPLLYGEVGDTLLIIFKNQASRPYNIYPHGITDVRPLYSRRLPKGVKHLADFPILPGEIFKYKWTVTVEDGPTKSDPRCLTRYYSSFVNMERDLASGLIGPLLICYKESVDQRGNQIMSDKRNVILFSVFDENRSWYLTENIQRFLPNPAGVQLEDPEFQASNIMHSINGYVFDSLQLSVCLHEVAYWYILSIGAQTDFLSVFFSGYTFKHKMVYEDTLTLFPFSGETVFMSMENPGLWILGCHNSDFRNRGMTALLKVSSCDKNTGDYYEDSYEDISAYLLSKNNAIEPR
notes: hx-A2 form from Sf9 cells; also called Lys^499 Ala mutant; not shown: N-terminal hx leader (6xHis tag, vector-derived linker, factor Xa site)
[1]
  Activity of reconstituted FVIIIa (% of wt activity): 128 % of wt activity
[2]
  Kd: 33 nM

B4: recombinant A2 mutant #17 (Lys-510 to Ala) (other)
chain: SGAKKHPKTWVHYIAAEEEDWDYAPLVLAPDDRSYKSQYLNNGPQRIGRKYKKVRFMAYTDETFKTREAIQHESGILGPLLYGEVGDTLLIIFKNQASRPYNIYPHGITDVRPLYSRRLPKGVKHLKDFPILPGEIFAYKWTVTVEDGPTKSDPRCLTRYYSSFVNMERDLASGLIGPLLICYKESVDQRGNQIMSDKRNVILFSVFDENRSWYLTENIQRFLPNPAGVQLEDPEFQASNIMHSINGYVFDSLQLSVCLHEVAYWYILSIGAQTDFLSVFFSGYTFKHKMVYEDTLTLFPFSGETVFMSMENPGLWILGCHNSDFRNRGMTALLKVSSCDKNTGDYYEDSYEDISAYLLSKNNAIEPR
notes: hx-A2 form from Sf9 cells; not shown: N-terminal hx leader (6xHis tag, vector-derived linker, factor Xa site)
[1]
  Activity of reconstituted FVIIIa (% of wt activity): 91.5 % of wt activity
[2]
  Kd: 29 nM

B5: recombinant A2 mutant #14 (Lys-496 to Ala) (other)
chain: SGAKKHPKTWVHYIAAEEEDWDYAPLVLAPDDRSYKSQYLNNGPQRIGRKYKKVRFMAYTDETFKTREAIQHESGILGPLLYGEVGDTLLIIFKNQASRPYNIYPHGITDVRPLYSRRLPKGVAHLKDFPILPGEIFKYKWTVTVEDGPTKSDPRCLTRYYSSFVNMERDLASGLIGPLLICYKESVDQRGNQIMSDKRNVILFSVFDENRSWYLTENIQRFLPNPAGVQLEDPEFQASNIMHSINGYVFDSLQLSVCLHEVAYWYILSIGAQTDFLSVFFSGYTFKHKMVYEDTLTLFPFSGETVFMSMENPGLWILGCHNSDFRNRGMTALLKVSSCDKNTGDYYEDSYEDISAYLLSKNNAIEPR
notes: hx-A2 form from Sf9 cells
[1]
  Activity of reconstituted FVIIIa (% of wt activity): 263 % of wt activity
[2]
  Kd: 9.5 nM

B6: recombinant A2 mutant #1 (Lys-376 to Ala) (other)
chain: SGAAKHPKTWVHYIAAEEEDWDYAPLVLAPDDRSYKSQYLNNGPQRIGRKYKKVRFMAYTDETFKTREAIQHESGILGPLLYGEVGDTLLIIFKNQASRPYNIYPHGITDVRPLYSRRLPKGVKHLKDFPILPGEIFKYKWTVTVEDGPTKSDPRCLTRYYSSFVNMERDLASGLIGPLLICYKESVDQRGNQIMSDKRNVILFSVFDENRSWYLTENIQRFLPNPAGVQLEDPEFQASNIMHSINGYVFDSLQLSVCLHEVAYWYILSIGAQTDFLSVFFSGYTFKHKMVYEDTLTLFPFSGETVFMSMENPGLWILGCHNSDFRNRGMTALLKVSSCDKNTGDYYEDSYEDISAYLLSKNNAIEPR
notes: as for B4
[1]
  Activity of reconstituted FVIIIa (% of wt activity): 73.9 % of wt activity
[2]
  Kd: 25.5 nM

B7: recombinant A2 mutant #18 (Lys-512 to Ala) (other)
chain: SGAKKHPKTWVHYIAAEEEDWDYAPLVLAPDDRSYKSQYLNNGPQRIGRKYKKVRFMAYTDETFKTREAIQHESGILGPLLYGEVGDTLLIIFKNQASRPYNIYPHGITDVRPLYSRRLPKGVKHLKDFPILPGEIFKYAWTVTVEDGPTKSDPRCLTRYYSSFVNMERDLASGLIGPLLICYKESVDQRGNQIMSDKRNVILFSVFDENRSWYLTENIQRFLPNPAGVQLEDPEFQASNIMHSINGYVFDSLQLSVCLHEVAYWYILSIGAQTDFLSVFFSGYTFKHKMVYEDTLTLFPFSGETVFMSMENPGLWILGCHNSDFRNRGMTALLKVSSCDKNTGDYYEDSYEDISAYLLSKNNAIEPR
notes: as for B4
[1]
  Activity of reconstituted FVIIIa (% of wt activity): 219 % of wt activity
[2]
  Kd: 21 nM

B8: recombinant A2 mutant #15 (His-497 to Ala) (other)
chain: SGAKKHPKTWVHYIAAEEEDWDYAPLVLAPDDRSYKSQYLNNGPQRIGRKYKKVRFMAYTDETFKTREAIQHESGILGPLLYGEVGDTLLIIFKNQASRPYNIYPHGITDVRPLYSRRLPKGVKALKDFPILPGEIFKYKWTVTVEDGPTKSDPRCLTRYYSSFVNMERDLASGLIGPLLICYKESVDQRGNQIMSDKRNVILFSVFDENRSWYLTENIQRFLPNPAGVQLEDPEFQASNIMHSINGYVFDSLQLSVCLHEVAYWYILSIGAQTDFLSVFFSGYTFKHKMVYEDTLTLFPFSGETVFMSMENPGLWILGCHNSDFRNRGMTALLKVSSCDKNTGDYYEDSYEDISAYLLSKNNAIEPR
notes: hx-A2 form from Sf9 cells
[1]
  Activity of reconstituted FVIIIa (% of wt activity): 242 % of wt activity
[2]
  Kd: 51 nM

B9: recombinant A2 mutant #13 (Lys-493 to Ala) (other)
chain: SGAKKHPKTWVHYIAAEEEDWDYAPLVLAPDDRSYKSQYLNNGPQRIGRKYKKVRFMAYTDETFKTREAIQHESGILGPLLYGEVGDTLLIIFKNQASRPYNIYPHGITDVRPLYSRRLPAGVKHLKDFPILPGEIFKYKWTVTVEDGPTKSDPRCLTRYYSSFVNMERDLASGLIGPLLICYKESVDQRGNQIMSDKRNVILFSVFDENRSWYLTENIQRFLPNPAGVQLEDPEFQASNIMHSINGYVFDSLQLSVCLHEVAYWYILSIGAQTDFLSVFFSGYTFKHKMVYEDTLTLFPFSGETVFMSMENPGLWILGCHNSDFRNRGMTALLKVSSCDKNTGDYYEDSYEDISAYLLSKNNAIEPR
notes: hx-A2 form from Sf9 cells
[1]
  Activity of reconstituted FVIIIa (% of wt activity): 267 % of wt activity
[2]
  Kd: 18 nM

B10: recombinant A2 mutant #9 (Ser-488 to Ala) (other)
chain: SGAKKHPKTWVHYIAAEEEDWDYAPLVLAPDDRSYKSQYLNNGPQRIGRKYKKVRFMAYTDETFKTREAIQHESGILGPLLYGEVGDTLLIIFKNQASRPYNIYPHGITDVRPLYARRLPKGVKHLKDFPILPGEIFKYKWTVTVEDGPTKSDPRCLTRYYSSFVNMERDLASGLIGPLLICYKESVDQRGNQIMSDKRNVILFSVFDENRSWYLTENIQRFLPNPAGVQLEDPEFQASNIMHSINGYVFDSLQLSVCLHEVAYWYILSIGAQTDFLSVFFSGYTFKHKMVYEDTLTLFPFSGETVFMSMENPGLWILGCHNSDFRNRGMTALLKVSSCDKNTGDYYEDSYEDISAYLLSKNNAIEPR
notes: hx-A2 form from Sf9 cells
[1]
  Activity of reconstituted FVIIIa (% of wt activity): 232 % of wt activity
[2]
  Kd: 67 nM

B11: recombinant A2 mutant #12 (Leu-491 to Ala) (other)
chain: SGAKKHPKTWVHYIAAEEEDWDYAPLVLAPDDRSYKSQYLNNGPQRIGRKYKKVRFMAYTDETFKTREAIQHESGILGPLLYGEVGDTLLIIFKNQASRPYNIYPHGITDVRPLYSRRAPKGVKHLKDFPILPGEIFKYKWTVTVEDGPTKSDPRCLTRYYSSFVNMERDLASGLIGPLLICYKESVDQRGNQIMSDKRNVILFSVFDENRSWYLTENIQRFLPNPAGVQLEDPEFQASNIMHSINGYVFDSLQLSVCLHEVAYWYILSIGAQTDFLSVFFSGYTFKHKMVYEDTLTLFPFSGETVFMSMENPGLWILGCHNSDFRNRGMTALLKVSSCDKNTGDYYEDSYEDISAYLLSKNNAIEPR
notes: hx-A2 form from Sf9 cells
[1]
  Activity of reconstituted FVIIIa (% of wt activity): 518 % of wt activity
[2]
  Kd: 21 nM
